Reference: patent publication US20230340090A1 (published 2023)

T1: TDP-215 peptide GDVMDVFI (human)
T1 construct: same ELISA method as for the biotinylated 15-mers
T1 peptide: GDVMDVFI


Target: T1, TDP-215 peptide GDVMDVFI
Test: indirect ELISA on 8-mer peptide library
Procedure: Serum-free supernatants were harvested from stable hybridomas. The supernatants containing antibodies of interest were then screened by an indirect ELISA assay to determine epitopes. Epitopes were mapped using a library of TDP-43 15-mer peptides. Briefly, 96-well streptavidin-coated 96-well ELISA plates were incubated with 5 μg/mL of biotinylated 15-mer peptides spanning the amino acids (aa) 199-285 of human TDP-43 with 9 as offset and 6 as overlap. Plates were washed thoroughly with 0.05% Tween-20/PBS and then blocked with 1% bovine serum albumin (BSA) in 0.05% Tween-20/PBS for 1 hour at 37° C. The antibody contained in the hybridoma supernatant was then added at the indicated dilutions, and incubated for 2 hours at 37° C. after which the plates were washed as described previously. An AP-conjugated anti-mouse IgG secondary antibody (Jackson ImmunoResearch Laboratories, United Kingdom) was added at 1/1000 dilution in 0.05% Tween-20/PBS for 1 hour at 37° C. After the final wash, plates were incubated with pNPP (Sigma-Aldrich, Switzerland) an AP substrate solution, and read at 405 nm using an ELISA plate reader (Tecan).
Furthermore, antibodies were tested using an indirect ELISA on a peptide library of 8-mer peptides with 7 an overlap covering the sequence of human TDP-43 from aa 210 to aa 231, using the same ELISA method as describe previously in this section.

binding result	Binder
binds	ACI-7062-415H10-Ab2 (antibody, IgG3, V domains shown, Mouse hybridoma antibody, IgG3, kappa; also called 415H10B7; clone 17) VH: DVQLVESGGGLVQPGGSRKLSCAASGFTFSSFGMHWVRQAPEKGLEWVAYISSGSSNIYYTDTVKGRFTISRDNPKNTLFLQMTSLRSEDTAIYYCARSGTTVPFDYWGQGTTLTVSS VL: not shown
binds	ACI-7062-404D6-Ab2 (antibody, IgG3, V domains shown, Mouse hybridoma antibody, IgG3, kappa; also called 404D6E11; clone 4) VH: QVTLKESGPGILQPSQTLSLTCSFSGFSLSTYGIGVGWIRQPSGKGLEWLAHIWWNDYKYYNTALKSRLTISKDTSNNRVFLKIASVDTADTATYYCARVYGNLYYFDYWGQGTTLTVSS VL: DVLMTQTPLSLPVSLGDQASISCRSSQSIVHGSGNTYLEWYLQKPGQSPKLLIYKVSNRFSGVPDRFSGSGSGTDFTLRISRVEAEDLGVYYCFQGSHVPTFGAGTKLELKR
